Results published in the supplement of paper PMC7877785.
± gives the uncertainty stated by the source.

Experiment: self-splicing fitness, log relative to wild type (ln ratio); higher = more splicing; Tetrahymena group I intron in knt gene, E. coli kanamycin selection, DiMSum; sequences stand for … in CUCUCU…GGAGGGAAAAGUUAUCAGGCAUGCACCUGGUAGCUAGUCUUUAAACCAAUAGAUUGCAUCGGUUUAAAAGGCAAGACCGUCAAAUUGCGGGAAAGGGGUCAACAGCCGUUCAGUACCAAGUCUCAGGGGAAACUUUGAGAUGGCCUUGCAAAGGGUAUGGUAAUAAGCUGACGGACAUGGUCCUAACCACGCAGCCAAGUCCUAAGUCAACAGAUCUUCUGUUGAUAUGGAUGCAGUUCACAGACUAAAUGUCGGUCGGGGAAGAUGUAUUCUUCUCAUAAGAUAUAGUCGGACCUCUCCUUAAUGGGAGCUAGCGGAUGAAGUGAUGCAACACUGGAGCCGCUGGGAACUAAUUUGUAUGCGAAAGUAUAUUGAUUAGUUUUGGAGUACUCGUGGUCG
Method in brief: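 Library with all eight P1ex-region intron nucleotides randomised, intron inside the knt kanamycin-resistance gene on pET-22b(+), in E. coli BL21(DE3). Cells grew overnight at 37°C or 30°C on LB agar with or without 25 μg/mL kanamycin (plus 100 μg/mL carbenicillin, 50 μM IPTG, 0.2% rhamnose), in six replicate transformations. Pooled colonies were amplicon-sequenced on Illumina HiSeq 2500. DiMSum fitness is the error-weighted combination of wild-type-normalised replicate fold changes, kanamycin versus none.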

| Sequence | self-splicing fitness (ln) (30 °C) | self-splicing fitness (ln) (37 °C) |
| --- | --- | --- |
| GACCAGCAAUAUUACGGGUC | -4.01 ± 0.21 | -3.33 ± 0.22 |
| GACCAGCAAUAUUACGUAAA | 0.0993 ± 0.067 | -0.108 ± 0.094 |
| GACCAGCAAUAUUACGUCGC | -1.89 ± 0.1 | -0.411 ± 0.13 |
| GACCAGCAAUAUUACGUGGG | -3.64 ± 0.12 | -2.47 ± 0.12 |
| GACCAGCAAUAUUACGUUCC | -2.31 ± 0.26 | -1.76 ± 0.28 |
| GACCAGCAAUAUUACGUUUG | -2.55 ± 0.073 | -1.42 ± 0.081 |
| GACGAGCAAUAUUACGAAAU | -2.5 ± 0.23 |  |
| GACGAGCAAUAUUACGAAUC |  | -2.14 ± 0.4 |
| GACGAGCAAUAUUACGAGAU | -2.23 ± 0.3 |  |
| GACGAGCAAUAUUACGAGCC | -2.73 ± 0.33 |  |
| GACGAGCAAUAUUACGAUGU | -3.94 ± 0.26 | -1.38 ± 0.14 |
| GACGAGCAAUAUUACGCCCU | -2.99 ± 0.25 | -1.47 ± 0.19 |
| GACGAGCAAUAUUACGCGUU | -3.74 ± 0.23 | -2.88 ± 0.25 |
| GACGAGCAAUAUUACGCUUA | -2.29 ± 0.15 | -1.13 ± 0.14 |
| GACGAGCAAUAUUACGGGAA | -3.41 ± 0.31 | -2.34 ± 0.19 |
| GACGAGCAAUAUUACGGGUC | -3.77 ± 0.21 | -3.28 ± 0.25 |
| GACGAGCAAUAUUACGUAGA | -2.81 ± 0.26 | -1.98 ± 0.22 |
| GACGAGCAAUAUUACGUAGU | -2.9 ± 0.26 | -1.88 ± 0.3 |
| GACGAGCAAUAUUACGUCAG |  | -1.66 ± 0.23 |
| GACGAGCAAUAUUACGUCGU | -3.59 ± 0.24 | -2.34 ± 0.23 |
| GACGAGCAAUAUUACGUCUC | -3.48 ± 0.36 | -1.23 ± 0.28 |
| GACGAGCAAUAUUACGUCUU | -2.63 ± 0.21 | -1.01 ± 0.17 |
| GACGAGCAAUAUUACGUGGA | -4 ± 0.21 | -2.92 ± 0.21 |
| GACGAGCAAUAUUACGUGGG | -4.32 ± 0.36 | -3.12 ± 0.2 |
| GACUAGCAAUAUUACGAAGU | -3.08 ± 0.17 | -1.82 ± 0.22 |

| Sequence | self-splicing fitness (ln) (30 °C) | self-splicing fitness (ln) (37 °C) |
| --- | --- | --- |
| GACUAGCAAUAUUACGAAUU | -1.35 ± 0.092 | -0.277 ± 0.11 |
| GACUAGCAAUAUUACGACAG | -2.92 ± 0.14 | -2.4 ± 0.2 |
| GACUAGCAAUAUUACGACUG | -1.64 ± 0.1 | 0.0415 ± 0.13 |
| GACUAGCAAUAUUACGAGAG | -3.75 ± 0.18 | -2.28 ± 0.14 |
| GACUAGCAAUAUUACGAGUC |  | -2.36 ± 0.39 |
| GACUAGCAAUAUUACGAUCA | -0.805 ± 0.062 | -0.314 ± 0.077 |
| GACUAGCAAUAUUACGAUGC | -0.221 ± 0.062 | 0.0502 ± 0.082 |
| GACUAGCAAUAUUACGCACC | -0.905 ± 0.18 | 0.000851 ± 0.28 |
| GACUAGCAAUAUUACGCAGA | -2.34 ± 0.16 | -1.62 ± 0.17 |
| GACUAGCAAUAUUACGCCUA | -0.114 ± 0.18 | -0.547 ± 0.15 |
| GACUAGCAAUAUUACGCGAA | -1.83 ± 0.18 | -0.638 ± 0.17 |
| GACUAGCAAUAUUACGCGAG | -2.49 ± 0.21 | -1.28 ± 0.15 |
| GACUAGCAAUAUUACGCGGU | -3.62 ± 0.17 | -3.27 ± 0.28 |
| GACUAGCAAUAUUACGCGUG | -1.44 ± 0.061 | -0.609 ± 0.067 |
| GACUAGCAAUAUUACGCUUA | -0.282 ± 0.17 | -0.7 ± 0.14 |
| GACUAGCAAUAUUACGGACG | -1.4 ± 0.21 | -1.85 ± 0.13 |
| GACUAGCAAUAUUACGGAGC | -1.58 ± 0.16 | -2.19 ± 0.2 |
| GACUAGCAAUAUUACGGAGG |  | -1.68 ± 0.4 |
| GACUAGCAAUAUUACGGAUG | -2.9 ± 0.11 | -1.29 ± 0.1 |
| GACUAGCAAUAUUACGGCAA | -0.738 ± 0.08 | -0.302 ± 0.09 |
| GACUAGCAAUAUUACGGCAG | -2.84 ± 0.14 | -2.49 ± 0.23 |
| GACUAGCAAUAUUACGGCGC | 0.0438 ± 0.14 | -0.0936 ± 0.17 |
| GACUAGCAAUAUUACGGGUC | -3.22 ± 0.19 | -2.71 ± 0.28 |
| GACUAGCAAUAUUACGGUGC | -2.65 ± 0.14 | -1.73 ± 0.16 |
| GACUAGCAAUAUUACGUAAC | -1.33 ± 0.073 | -0.875 ± 0.1 |
